Assay results reported in patent publication US20200283482A1, “BICYCLIC PEPTIDE LIGAND PRR-A CONJUGATES AND USES THEREOF” (BicycleRD Limited, priority 2017, published 2020).
Starred links: 1 amine or outer side, 2 acyl side, 3 side chain; linkers in the order of their positions; H or OH if unused. Positions of bridges follow the written chain, without caps; N, C: chain ends. Non-standard residues stand in square brackets, D forms with d. Residues, ends and D or L forms follow the SMILES beside them. *: point of attachment. X14 = CCCOc1nc(NC(=O)CCCNC(=O)OCc2ccc(NC(=O)[C@H](CCCNC(N)=O)NC(=O)[C@@H](NC(=O)Cn3cc(CCC(=O)*)nn3)C(C)C)cc2)c2[nH]c(=O)n(Cc3ccc(OCCN(C)C)nc3)c2n1; X13 = CCOCc1nc2c(NC(=O)N(C)CCN(C)C(=O)OCc3ccc(NC(=O)[C@H](CCCNC(N)=O)NC(=O)[C@@H](NC(=O)Cn4cc(CCC(=O)*)nn4)C(C)C)cc3)nc3ccccc3c2n1CC(C)(C)O; X6 = CCN(Cc1nc2c(N)nc3ccccc3c2n1CC(C)(C)O)C(=O)OCc1ccc(NC(=O)[C@H](CCCNC(N)=O)NC(=O)[C@@H](NC(=O)Cn2cc(CCC(=O)*)nn2)C(C)C)cc1; X4 = CCN(Cc1nc2c(N)nc3ccccc3c2n1CC(C)(C)O)C(=O)OCc1ccc(NC(=O)[C@H](CCCNC(N)=O)NC(=O)C2(C(=O)*)CCC2)cc1; X16 = CCCOc1nc(NC(=O)CCCSSC(C)CCC(=O)*)c2[nH]c(=O)n(Cc3ccc(OCCN(C)C)nc3)c2n1; X15 = CCOCc1nc2c(NC(=O)CCCSSC(C)CCC(=O)*)nc3ccccc3c2n1CC(C)(C)O; 1Nal = N[C@@H](Cc1cccc2ccccc12)C(=O)O; TBMB = c1c(C[*:1])cc(C[*:3])cc1C[*:2]; X5 = O=C(CCc1cn(CCCN[*:1])nn1)[*:2]; Tle = CC(C)(C)[C@H](N)C(=O)O; βAla = NCCC(=O)O; Sar = CNCC(=O)O

Key:
Blood stability, mouse = assay type: in vitro ADME, CD-1 mouse; details: male, CD-1, mouse
Experimental: CD-1 mouse blood (n≥2, male, fasted overnight) is collected from animals housed at an internal facility. (EDTA-K2 is used as anticoagulant)
The test compounds and positive control stock solutions are prepared to 10 mM in DMSO or ultrapure water. Control compounds bisacodyl, enalapril and propantheline known to be metabolised by blood are also incubated alongside each batch of test compounds I-7, I-22, I-24, I-25, I-27, and I-29 to I-33. The dosing solutions of test compounds and controls are prepared by diluting the stock solution with 45% MeOH/H2O to achieve 100 uM. Test compound solutions (final incubation concentration=2 μM) are incubated with blood (final DMSO concentration≤1%) at six different time points (0, 1, 2, 4, 6 and 24 hours) in duplicate (n=2). The reaction is terminated by adding 100 uL ultra-pure water, mixing well, then adding 800 uL of 100% methanol containing 200 ng/mL tolbutamide and 200 ng/mL labetalol as internal standards. Samples are then vortexed and centrifuged at 3200×g for 20 minutes. Following centrifugation, the concentration of test compound in the supernatant is determined semi-quantitatively by LC-MS/MS. The percentage of test compound remaining at the individual time points relative to the 0 hour sample is then reported. The percent remaining of test compound after incubation in blood is calculated using following equation: Percent Remaining=100×(PAR at appointed incubation time/PAR at T0 time) where PAR is the peak area ratio of analyte versus internal standard (IS).

Plasma stability, human = assay type: in vitro ADME; details: human, plasma, pH 7.4
Experimental: (§1) The pooled frozen mouse, rat, dog, monkey or human plasma is thawed in a water bath at 37° C. prior to experiment. Plasma is centrifuged at 4000 rpm for 5 min and the clots are removed if any. […] For positive controls, 100 μM intermediate solution is prepared by diluting 20 μL of the stock solution with 180 μL 45% MeOH/H2O. […] For compounds I-7 to […]-17, […]-22, and […]-33, at each time point (0, 1, 2, 4, 6 and 24 hr), reactions were stopped by removing the plates from water bath and 200 μL 20 mM NH4OAC mix well first and then adding 800 μL of ice-cold stop solution (200 ng/mL Labetalol, 200 ng/mL Tolbutamide, 500 ng/mL N6-Ben and 40 mM DBAA in 100% Methanol). […] Sample plates were vortexed immediately on a plate shaker at 800 rpm for 10 min and then centrifuged at 4,000 rpm for 10 min. An aliquot of supernatant (200 μL) is transferred from each well before submitting to LC-MS/MS analysis. The percentage of test compound remaining at the individual time points relative to the 0 hour sample is calculated using following equation: Percent Remaining=100×(PAR at appointed incubation time/PAR at T0 time) where PAR is the peak area ratio of analyte versus internal standard (IS).

Plasma stability, mouse = assay type: in vitro ADME; details: mouse, plasma, pH 7.4
Experimental: as §1

Plasma stability, cyno = assay type: in vitro ADME; details: cynomolgus monkey, plasma, pH 7.4
Experimental: as §1

Plasma stability, rat = assay type: in vitro ADME; details: rat, plasma, pH 7.4
Experimental: as §1

| Structure (SMILES) | half-life at 2 μM (Blood stability, mouse) | half-life at 2 μM (Plasma stability, human) | half-life at 2 μM (Plasma stability, mouse) | half-life at 2 μM (Plasma stability, cyno) | half-life at 2 μM (Plasma stability, rat) |
| --- | --- | --- | --- | --- | --- |
| CCOCc1nc2c(NC(=O)N(C)CCN(C)C(=O)OCc3ccc(NC(=O)[C@H](CCCNC(N)=O)NC(=O)[C@@H](NC(=O)Cn4cc(CCC(=O)NCCC(=O)N(C)CC(=O)N(C)CC(=O)N(C)CC(=O)N(C)CC(=O)N(C)CC(=O)N(C)CC(=O)N(C)CC(=O)N(C)CC(=O)N(C)CC(=O)N(C)CC(=O)N[C@@H](C)C(=O)N[C@H]5CSCc6cc7cc(c6)CSC[C@H](NC(=O)[C@@H](C)NC(=O)[C@H](Cc6cccc8ccccc68)NC(=O)[C@H](CCC(=O)O)NC(=O)[C@H](CC(N)=O)NC(=O)[C@@H](C)NC5=O)C(=O)N[C@@H](CCC(=O)O)C(=O)N[C@@H](CC(=O)O)C(=O)N[C@@H](Cc5ccccc5)C(=O)N[C@@H](Cc5ccc(O)cc5)C(=O)N[C@@H](CC(=O)O)C(=O)N[C@@H](C(C)(C)C)C(=O)N[C@H](C(N)=O)CSC7)nn4)C(C)C)cc3)nc3ccccc3c2n1CC(C)(C)O [1-31] ({X13-βAla}-[Sar][Sar][Sar][Sar][Sar][Sar][Sar][Sar][Sar][Sar]AC[dA]NE[1Nal][dA]CEDFYD[Tle]C-NH2; linker 12-18-25 via TBMB) | 6 to 24 h |  |  |  |  |
| CCN(Cc1nc2c(N)nc3ccccc3c2n1CC(C)(C)O)C(=O)OCc1ccc(NC(=O)[C@H](CCCNC(N)=O)NC(=O)C2(C(=O)NCCCn3cc(CCC(=O)NCCC(=O)N(C)CC(=O)N(C)CC(=O)N(C)CC(=O)N(C)CC(=O)N(C)CC(=O)N(C)CC(=O)N(C)CC(=O)N(C)CC(=O)N(C)CC(=O)N(C)CC(=O)N[C@@H](C)C(=O)N[C@H]4CSCc5cc6cc(c5)CSC[C@H](NC(=O)[C@@H](C)NC(=O)[C@H](Cc5cccc7ccccc57)NC(=O)[C@H](CCC(=O)O)NC(=O)[C@H](CC(N)=O)NC(=O)[C@@H](C)NC4=O)C(=O)N[C@@H](CCC(=O)O)C(=O)N[C@@H](CC(=O)O)C(=O)N[C@@H](Cc4ccccc4)C(=O)N[C@@H](Cc4ccc(O)cc4)C(=O)N[C@@H](CC(=O)O)C(=O)N[C@@H](C(C)(C)C)C(=O)N[C@H](C(N)=O)CSC6)nn3)CCC2)cc1 [I-30] (X4-[X5][βAla][Sar][Sar][Sar][Sar][Sar][Sar][Sar][Sar][Sar][Sar]AC[dA]NE[1Nal][dA]CEDFYD[Tle]C-NH2; linker 14-20-27 via TBMB) | 6 to 24 h | > 24 h | > 24 h | > 24 h | > 24 h |
| CCN(Cc1nc2c(N)nc3ccccc3c2n1CC(C)(C)O)C(=O)OCc1ccc(NC(=O)[C@H](CCCNC(N)=O)NC(=O)[C@@H](NC(=O)Cn2cc(CCC(=O)NCCC(=O)N(C)CC(=O)N(C)CC(=O)N(C)CC(=O)N(C)CC(=O)N(C)CC(=O)N(C)CC(=O)N(C)CC(=O)N(C)CC(=O)N(C)CC(=O)N(C)CC(=O)N[C@@H](C)C(=O)N[C@H]3CSCc4cc5cc(c4)CSC[C@H](NC(=O)[C@@H](C)NC(=O)[C@H](Cc4cccc6ccccc46)NC(=O)[C@H](CCC(=O)O)NC(=O)[C@H](CC(N)=O)NC(=O)[C@@H](C)NC3=O)C(=O)N[C@@H](CCC(=O)O)C(=O)N[C@@H](CC(=O)O)C(=O)N[C@@H](Cc3ccccc3)C(=O)N[C@@H](Cc3ccc(O)cc3)C(=O)N[C@@H](CC(=O)O)C(=O)N[C@@H](C(C)(C)C)C(=O)N[C@H](C(N)=O)CSC5)nn2)C(C)C)cc1 [I-33] ({X6-βAla}-[Sar][Sar][Sar][Sar][Sar][Sar][Sar][Sar][Sar][Sar]AC[dA]NE[1Nal][dA]CEDFYD[Tle]C-NH2; linker 12-18-25 via TBMB) | 6 to 24 h | > 24 h | 6 to 24 h | > 24 h | > 24 h |
| CCOCc1nc2c(NC(=O)N(C)CCN(C)C(=O)OCc3ccc(NC(=O)[C@H](CCCNC(N)=O)NC(=O)[C@@H](NC(=O)Cn4cc(CCC(=O)NCCC(=O)N(C)CC(=O)N(C)CC(=O)N(C)CC(=O)N(C)CC(=O)N(C)CC(=O)N(C)CC(=O)N(C)CC(=O)N(C)CC(=O)N(C)CC(=O)N(C)CC(=O)N[C@@H](C)C(=O)N[C@H]5CSCc6cc7cc(c6)CSC[C@H](NC(=O)[C@@H](C)NC(=O)[C@H](Cc6cccc8ccccc68)NC(=O)[C@H](CCC(=O)O)NC(=O)[C@H](CC(N)=O)NC(=O)[C@@H](C)NC5=O)C(=O)N[C@@H](CCC(=O)O)C(=O)N[C@@H](CC(=O)O)C(=O)N[C@@H](Cc5ccccc5)C(=O)N[C@@H](Cc5ccc(O)cc5)C(=O)N[C@@H](CC(=O)O)C(=O)N[C@@H](C(C)(C)C)C(=O)N[C@H](C(N)=O)CSC7)nn4)C(C)C)cc3)nc3ccccc3c2n1CC(C)(C)O [I-31] ({X13-βAla}-[Sar][Sar][Sar][Sar][Sar][Sar][Sar][Sar][Sar][Sar]AC[dA]NE[1Nal][dA]CEDFYD[Tle]C-NH2; linker 12-18-25 via TBMB) |  | > 24 h | > 24 h | > 24 h | > 24 h |
| CCCOc1nc(NC(=O)CCCSSC(C)CCC(=O)NCCC(=O)N(C)CC(=O)N(C)CC(=O)N(C)CC(=O)N(C)CC(=O)N(C)CC(=O)N(C)CC(=O)N(C)CC(=O)N(C)CC(=O)N(C)CC(=O)N(C)CC(=O)N[C@@H](C)C(=O)N[C@H]2CSCc3cc4cc(c3)CSC[C@H](NC(=O)[C@@H](C)NC(=O)[C@H](Cc3cccc5ccccc35)NC(=O)[C@H](CCC(=O)O)NC(=O)[C@H](CC(N)=O)NC(=O)[C@@H](C)NC2=O)C(=O)N[C@@H](CCC(=O)O)C(=O)N[C@@H](CC(=O)O)C(=O)N[C@@H](Cc2ccccc2)C(=O)N[C@@H](Cc2ccc(O)cc2)C(=O)N[C@@H](CC(=O)O)C(=O)N[C@@H](C(C)(C)C)C(=O)N[C@H](C(N)=O)CSC4)c2[nH]c(=O)n(Cc3ccc(OCCN(C)C)nc3)c2n1 (stereo partly drawn) [I-23] ({X16-βAla}-[Sar][Sar][Sar][Sar][Sar][Sar][Sar][Sar][Sar][Sar]AC[dA]NE[1Nal][dA]CEDFYD[Tle]C-NH2; linker 12-18-25 via TBMB) |  | < 2 h | < 2 h | < 2 h | < 2 h |
| CCCOc1nc(NC(=O)CCCNC(=O)OCc2ccc(NC(=O)[C@H](CCCNC(N)=O)NC(=O)[C@@H](NC(=O)Cn3cc(CCC(=O)NCCC(=O)N(C)CC(=O)N(C)CC(=O)N(C)CC(=O)N(C)CC(=O)N(C)CC(=O)N(C)CC(=O)N(C)CC(=O)N(C)CC(=O)N(C)CC(=O)N(C)CC(=O)N[C@@H](C)C(=O)N[C@H]4CSCc5cc6cc(c5)CSC[C@H](NC(=O)[C@@H](C)NC(=O)[C@H](Cc5cccc7ccccc57)NC(=O)[C@H](CCC(=O)O)NC(=O)[C@H](CC(N)=O)NC(=O)[C@@H](C)NC4=O)C(=O)N[C@@H](CCC(=O)O)C(=O)N[C@@H](CC(=O)O)C(=O)N[C@@H](Cc4ccccc4)C(=O)N[C@@H](Cc4ccc(O)cc4)C(=O)N[C@@H](CC(=O)O)C(=O)N[C@@H](C(C)(C)C)C(=O)N[C@H](C(N)=O)CSC6)nn3)C(C)C)cc2)c2[nH]c(=O)n(Cc3ccc(OCCN(C)C)nc3)c2n1 [I-26] ({X14-βAla}-[Sar][Sar][Sar][Sar][Sar][Sar][Sar][Sar][Sar][Sar]AC[dA]NE[1Nal][dA]CEDFYD[Tle]C-NH2; linker 12-18-25 via TBMB) |  | < 2 h | < 2 h | < 2 h | < 2 h |
| CCOCc1nc2c(NC(=O)CCCSSC(C)CCC(=O)NCCC(=O)N(C)CC(=O)N(C)CC(=O)N(C)CC(=O)N(C)CC(=O)N(C)CC(=O)N(C)CC(=O)N(C)CC(=O)N(C)CC(=O)N(C)CC(=O)N(C)CC(=O)N[C@@H](C)C(=O)N[C@H]3CSCc4cc5cc(c4)CSC[C@H](NC(=O)[C@@H](C)NC(=O)[C@H](Cc4cccc6ccccc46)NC(=O)[C@H](CCC(=O)O)NC(=O)[C@H](CC(N)=O)NC(=O)[C@@H](C)NC3=O)C(=O)N[C@@H](CCC(=O)O)C(=O)N[C@@H](CC(=O)O)C(=O)N[C@@H](Cc3ccccc3)C(=O)N[C@@H](Cc3ccc(O)cc3)C(=O)N[C@@H](CC(=O)O)C(=O)N[C@@H](C(C)(C)C)C(=O)N[C@H](C(N)=O)CSC5)nc3ccccc3c2n1CC(C)(C)O (stereo partly drawn) [I-28] ({X15-βAla}-[Sar][Sar][Sar][Sar][Sar][Sar][Sar][Sar][Sar][Sar]AC[dA]NE[1Nal][dA]CEDFYD[Tle]C-NH2; linker 12-18-25 via TBMB) |  | < 2 h | < 2 h | 2 to 6 h | < 2 h |
